± gives the standard deviation of the averaged measurements.
Experiments:
Saccharomyces cerevisiae [1] = test: protein stability index of tFT-peptide fusion (C-terminal peptide) (PSI (0-1 scale)); higher = more stable (slower turnover); conditions: genetic background: wild type; temperature: 30 C
Saccharomyces cerevisiae [2] = test: as above
Experimental: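 MPS profiling in S. cerevisiae of the tFT-X12 degron library: putative degron peptides plus stable controls, 12 aa, fused to the C-terminus of a sfGFP-mCherry timer. Cells are FACS-sorted into 8 mCherry/sfGFP bins and deep-sequenced. PSI runs from 0 (unstable) to 1 (stable). Backgrounds are wild type, das1Δ and doa10Δ at 30 °C, and wild type, das1Δ, cdc34-1 and cdc53-1 at 37 °C; 2-3 technical replicates each.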

[3] = genetic background: cdc34-1, temperature: 37 C
[4] = genetic background: cdc53-1, temperature: 37 C
[5] = genetic background: das1 deletion, temperature: 30 C
[6] = genetic background: das1 deletion, temperature: 37 C
[7] = genetic background: doa10 deletion, temperature: 30 C
[8] = genetic background: wild type, temperature: 30 C
[9] = genetic background: wild type, temperature: 37 C
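Also: PSI is a weighted mean of sequencing reads over stability bins, variants kept only with over 10 reads, mCherry proximal and sfGFP distal, peptide attached via GGGS linker.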

MCRMYELYVTSS
protein stability index (Saccharomyces cerevisiae [1]): 0.467 ± 0.01 | protein stability index (Saccharomyces cerevisiae [2]; [3]): 0.504 ± 0.046 | protein stability index (Saccharomyces cerevisiae [2]; [4]): 0.568 ± 0.079 | protein stability index (Saccharomyces cerevisiae [2]; [5]): 0.382 ± 0.034 | protein stability index (Saccharomyces cerevisiae [2]; [6]): 0.588 ± 0.026 | protein stability index (Saccharomyces cerevisiae [2]; [7]): 0.349 ± 0.025 | protein stability index (Saccharomyces cerevisiae [2]; [8]): 0.374 ± 0.018 | protein stability index (Saccharomyces cerevisiae [2]; [9]): 0.558 ± 0.016

RLGSLVPLAKQL
protein stability index (Saccharomyces cerevisiae [1]): 0.444 ± 0.059 | protein stability index (Saccharomyces cerevisiae [2]; [3]): 0.643 ± 0.11 | protein stability index (Saccharomyces cerevisiae [2]; [4]): 0.745 ± 0.03 | protein stability index (Saccharomyces cerevisiae [2]; [5]): 0.6729 ± 0.0062 | protein stability index (Saccharomyces cerevisiae [2]; [6]): 0.737 ± 0.023 | protein stability index (Saccharomyces cerevisiae [2]; [7]): 0.319 ± 0.0077 | protein stability index (Saccharomyces cerevisiae [2]; [8]): 0.289 ± 0.023 | protein stability index (Saccharomyces cerevisiae [2]; [9]): 0.413 ± 0.04

GLFAVWVVGVWC
protein stability index (Saccharomyces cerevisiae [1]): 0.212 ± 0.052 | protein stability index (Saccharomyces cerevisiae [2]; [3]): 0.0437 ± 0.0013 | protein stability index (Saccharomyces cerevisiae [2]; [4]): 0.137 ± 0.052 | protein stability index (Saccharomyces cerevisiae [2]; [5]): 0.139 ± 0.031 | protein stability index (Saccharomyces cerevisiae [2]; [6]): 0.219 ± 0.0058 | protein stability index (Saccharomyces cerevisiae [2]; [7]): 0.0955 ± 0.013 | protein stability index (Saccharomyces cerevisiae [2]; [8]): 0.111 ± 0.045 | protein stability index (Saccharomyces cerevisiae [2]; [9]): 0.202 ± 0.011

VSGEWSFLVRVQ
protein stability index (Saccharomyces cerevisiae [1]): 0.39 ± 0.15 | protein stability index (Saccharomyces cerevisiae [2]; [3]): 0.548 ± 0.026 | protein stability index (Saccharomyces cerevisiae [2]; [4]): 0.573 ± 0.0061 | protein stability index (Saccharomyces cerevisiae [2]; [5]): 0.452 ± 0.025 | protein stability index (Saccharomyces cerevisiae [2]; [6]): 0.61 ± 0.027 | protein stability index (Saccharomyces cerevisiae [2]; [7]): 0.392 ± 0.0066 | protein stability index (Saccharomyces cerevisiae [2]; [8]): 0.411 ± 0.024 | protein stability index (Saccharomyces cerevisiae [2]; [9]): 0.554 ± 0.012

EWGLGEIVVKVA
protein stability index (Saccharomyces cerevisiae [1]): 0.259 ± 0.057 | protein stability index (Saccharomyces cerevisiae [2]; [3]): 0.563 ± 0.025 | protein stability index (Saccharomyces cerevisiae [2]; [4]): 0.654 ± 0.013 | protein stability index (Saccharomyces cerevisiae [2]; [5]): 0.534 ± 0.011 | protein stability index (Saccharomyces cerevisiae [2]; [6]): 0.684 ± 0.015 | protein stability index (Saccharomyces cerevisiae [2]; [7]): 0.138 ± 0.0032 | protein stability index (Saccharomyces cerevisiae [2]; [8]): 0.162 ± 0.013 | protein stability index (Saccharomyces cerevisiae [2]; [9]): 0.2153 ± 0.0017

RDPLAPLLLAIP
protein stability index (Saccharomyces cerevisiae [1]): 0.698 ± 0.01 | protein stability index (Saccharomyces cerevisiae [2]; [3]): 0.65 ± 0.038 | protein stability index (Saccharomyces cerevisiae [2]; [4]): 0.717 ± 0.015 | protein stability index (Saccharomyces cerevisiae [2]; [5]): 0.587 ± 0.011 | protein stability index (Saccharomyces cerevisiae [2]; [6]): 0.7006 ± 0.0047 | protein stability index (Saccharomyces cerevisiae [2]; [7]): 0.596 ± 0.04 | protein stability index (Saccharomyces cerevisiae [2]; [8]): 0.609 ± 0.013 | protein stability index (Saccharomyces cerevisiae [2]; [9]): 0.6816 ± 0.0035

GVVCVLGFALFV
protein stability index (Saccharomyces cerevisiae [1]): 0.413 ± 0.08 | protein stability index (Saccharomyces cerevisiae [2]; [3]): 0.403 ± 0.026 | protein stability index (Saccharomyces cerevisiae [2]; [4]): 0.507 ± 0.042 | protein stability index (Saccharomyces cerevisiae [2]; [5]): 0.293 ± 0.046 | protein stability index (Saccharomyces cerevisiae [2]; [6]): 0.495 ± 0.0051 | protein stability index (Saccharomyces cerevisiae [2]; [7]): 0.28 ± 0.014 | protein stability index (Saccharomyces cerevisiae [2]; [8]): 0.3 ± 0.028 | protein stability index (Saccharomyces cerevisiae [2]; [9]): 0.473 ± 0.0053

ICFFQGVVVLFR
protein stability index (Saccharomyces cerevisiae [1]): 0.407 ± 0.0077 | protein stability index (Saccharomyces cerevisiae [2]; [3]): 0.353 ± 0.033 | protein stability index (Saccharomyces cerevisiae [2]; [4]): 0.403 ± 0.005 | protein stability index (Saccharomyces cerevisiae [2]; [5]): 0.312 ± 0.026 | protein stability index (Saccharomyces cerevisiae [2]; [6]): 0.48 ± 0.014 | protein stability index (Saccharomyces cerevisiae [2]; [7]): 0.3653 ± 0.0027 | protein stability index (Saccharomyces cerevisiae [2]; [8]): 0.303 ± 0.044 | protein stability index (Saccharomyces cerevisiae [2]; [9]): 0.4521 ± 0.0013

FFDLSLYSLCLC
protein stability index (Saccharomyces cerevisiae [1]): 0.378 ± 0.064 | protein stability index (Saccharomyces cerevisiae [2]; [3]): 0.623 ± 0.019 | protein stability index (Saccharomyces cerevisiae [2]; [4]): 0.69 ± 0.059 | protein stability index (Saccharomyces cerevisiae [2]; [5]): 0.466 ± 0.013 | protein stability index (Saccharomyces cerevisiae [2]; [6]): 0.6476 ± 0.0029 | protein stability index (Saccharomyces cerevisiae [2]; [7]): 0.229 ± 0.009 | protein stability index (Saccharomyces cerevisiae [2]; [8]): 0.271 ± 0.029 | protein stability index (Saccharomyces cerevisiae [2]; [9]): 0.4649 ± 0.0011

FLCLFFLAVIKL
protein stability index (Saccharomyces cerevisiae [1]): 0.383 ± 0.028 | protein stability index (Saccharomyces cerevisiae [2]; [3]): 0.241 ± 0.018 | protein stability index (Saccharomyces cerevisiae [2]; [4]): 0.188 ± 0.012 | protein stability index (Saccharomyces cerevisiae [2]; [5]): 0.344 ± 0.034 | protein stability index (Saccharomyces cerevisiae [2]; [6]): 0.412 ± 0.031 | protein stability index (Saccharomyces cerevisiae [2]; [7]): 0.502 ± 0.007 | protein stability index (Saccharomyces cerevisiae [2]; [8]): 0.309 ± 0.037 | protein stability index (Saccharomyces cerevisiae [2]; [9]): 0.356 ± 0.013
